Changes are numbered by the printed parent chain. Blank lines part the entries; values can stand above or below the binder they belong to.
Assays:
[1] = target: c-Met on MKN45 stomach cancer cells (human, UniProt P08581 25-1390); experiment: cell-based or functional assay
[2] = target: T1, EGFR-Fc (#344-ER, R&D Systems) (UniProt P00533 25-645); experiment: Biacore T100, antibody captured by human Fab capturer on CM5 chip, EGFR-Fc injected
T1 construct: Bought reagent; only name and catalogue number are printed; not shown: Fc part of the bought fusion protein
Protocol: (§1) The anti-c-Met/anti-EGFR bispecific antibody was analyzed for affinity for the two antigens (c-Met/EGFR) using a Biacore T100 instrument (GE). […] The chip surface was regenerated by injecting a 10 mM Glycine-HCl solution (pH 1.5). For affinity evaluation, the data was fitted using the BIAevaluation software (GE Healthcare, Biacore T100 evaluation software).

[3] = target: T2, human c-Met/Fc fusion protein (R&D Systems) (human, UniProt P08581 25-932); experiment: Biacore T100, antibody captured by human Fab capturer on CM5 chip, c-Met-Fc injected
T2 construct: Bought reagent; Treated as one molecule; also called c-Met-Fc (#358-MT/CF, R&D Systems); human c-Met/Fc protein; not shown: Fc part of the bought fusion protein
T2 sequence (P08581 25-932 limits assumed): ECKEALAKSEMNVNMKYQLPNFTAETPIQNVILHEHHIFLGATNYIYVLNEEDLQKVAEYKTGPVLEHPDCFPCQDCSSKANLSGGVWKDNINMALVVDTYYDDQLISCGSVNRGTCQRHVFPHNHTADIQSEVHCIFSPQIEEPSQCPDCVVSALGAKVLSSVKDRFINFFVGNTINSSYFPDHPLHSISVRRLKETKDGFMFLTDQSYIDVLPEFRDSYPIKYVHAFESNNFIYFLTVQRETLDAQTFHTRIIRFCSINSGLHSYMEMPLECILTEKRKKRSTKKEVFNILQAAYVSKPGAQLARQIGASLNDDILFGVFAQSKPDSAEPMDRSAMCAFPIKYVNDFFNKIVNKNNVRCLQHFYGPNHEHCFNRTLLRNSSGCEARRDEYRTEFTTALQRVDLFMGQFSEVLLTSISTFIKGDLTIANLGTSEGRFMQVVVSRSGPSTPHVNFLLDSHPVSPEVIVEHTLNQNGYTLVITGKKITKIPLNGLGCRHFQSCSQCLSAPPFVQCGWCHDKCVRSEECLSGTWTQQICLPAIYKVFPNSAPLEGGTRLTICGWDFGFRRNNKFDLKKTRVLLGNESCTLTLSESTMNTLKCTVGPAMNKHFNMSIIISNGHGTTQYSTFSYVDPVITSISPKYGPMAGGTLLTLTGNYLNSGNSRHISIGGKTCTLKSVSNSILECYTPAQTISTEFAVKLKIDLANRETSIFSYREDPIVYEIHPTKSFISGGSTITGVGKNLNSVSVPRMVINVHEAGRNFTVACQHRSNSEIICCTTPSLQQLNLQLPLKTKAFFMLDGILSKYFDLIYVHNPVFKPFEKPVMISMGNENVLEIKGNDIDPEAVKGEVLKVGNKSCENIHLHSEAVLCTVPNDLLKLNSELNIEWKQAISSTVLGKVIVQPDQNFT
Protocol: as §1

[4] = target: T3, synthesized peptide CSPQIEDPSQC (SEQ ID NO: 127), E168D; experiment: PEPSCAN ELISA on synthesized peptides
T3 construct: Core EDPSQ, E168D mutation of c-Met
T3 peptide: CSPQIEDPSQC
Protocol: (§2) The peptides were maintained at room temperature for 30 minutes by using a 5% blocking solution to provoke a reaction (4% ovalbumin, 5% horse serum, and 1% Tween 80). […] Thereafter, the resultant product was treated with rabbit-anti-sheep antibody (SIGMA) and washed with PBS, and the washed product was then treated with peroxidase-attached swine-anti-rabbit antibody (SIGMA) and washed with PBS. Then, the resultant was treated with 2 ul/ml of peroxidase 2,2′-azino-di-3-ethylbenzthiazoline sulfonate (ABTS) (SIGMA) in 3% H₂O₂, and a color reaction was measured after 1 hour.

[5] = target: T4, synthesized peptide CQIEDPSQAPC (SEQ ID NO: 129), E168D; experiment: PEPSCAN ELISA on synthesized peptides
T4 construct: Core EDPSQ, E168D mutation of c-Met
T4 peptide: CQIEDPSQAPC
Protocol: as §2

[6] = target: T5, synthesized peptide CIEDPSQAPDC (SEQ ID NO: 130), E168D; experiment: PEPSCAN ELISA on synthesized peptides
T5 construct: Core EDPSQ, E168D mutation of c-Met
T5 peptide: CIEDPSQAPDC
Protocol: as §2

[7] = target: T6, peptide EEPSQ (SEQ ID NO: 73); experiment: Biacore, huAbF46 immobilized on CM5 chip, peptide injected
T6 peptide: EEPSQ

[8] = target: T7, peptide AEPSQ (SEQ ID NO: 133); experiment: as above
T7 peptide: AEPSQ

[9] = target: T8, peptide EAPSQ (SEQ ID NO: 134); experiment: as above
T8 peptide: EAPSQ

[10] = target: T9, peptide EEASQ (SEQ ID NO: 135); experiment: as above
T9 peptide: EEASQ

[11] = target: T10, peptide EEPAQ (SEQ ID NO: 136); experiment: as above
T10 peptide: EEPAQ

[12] = target: T11, peptide EEPSA (SEQ ID NO: 137); experiment: as above
T11 peptide: EEPSA

c-Met on MKN45 stomach cancer cells, sequence (P08581 25-1390): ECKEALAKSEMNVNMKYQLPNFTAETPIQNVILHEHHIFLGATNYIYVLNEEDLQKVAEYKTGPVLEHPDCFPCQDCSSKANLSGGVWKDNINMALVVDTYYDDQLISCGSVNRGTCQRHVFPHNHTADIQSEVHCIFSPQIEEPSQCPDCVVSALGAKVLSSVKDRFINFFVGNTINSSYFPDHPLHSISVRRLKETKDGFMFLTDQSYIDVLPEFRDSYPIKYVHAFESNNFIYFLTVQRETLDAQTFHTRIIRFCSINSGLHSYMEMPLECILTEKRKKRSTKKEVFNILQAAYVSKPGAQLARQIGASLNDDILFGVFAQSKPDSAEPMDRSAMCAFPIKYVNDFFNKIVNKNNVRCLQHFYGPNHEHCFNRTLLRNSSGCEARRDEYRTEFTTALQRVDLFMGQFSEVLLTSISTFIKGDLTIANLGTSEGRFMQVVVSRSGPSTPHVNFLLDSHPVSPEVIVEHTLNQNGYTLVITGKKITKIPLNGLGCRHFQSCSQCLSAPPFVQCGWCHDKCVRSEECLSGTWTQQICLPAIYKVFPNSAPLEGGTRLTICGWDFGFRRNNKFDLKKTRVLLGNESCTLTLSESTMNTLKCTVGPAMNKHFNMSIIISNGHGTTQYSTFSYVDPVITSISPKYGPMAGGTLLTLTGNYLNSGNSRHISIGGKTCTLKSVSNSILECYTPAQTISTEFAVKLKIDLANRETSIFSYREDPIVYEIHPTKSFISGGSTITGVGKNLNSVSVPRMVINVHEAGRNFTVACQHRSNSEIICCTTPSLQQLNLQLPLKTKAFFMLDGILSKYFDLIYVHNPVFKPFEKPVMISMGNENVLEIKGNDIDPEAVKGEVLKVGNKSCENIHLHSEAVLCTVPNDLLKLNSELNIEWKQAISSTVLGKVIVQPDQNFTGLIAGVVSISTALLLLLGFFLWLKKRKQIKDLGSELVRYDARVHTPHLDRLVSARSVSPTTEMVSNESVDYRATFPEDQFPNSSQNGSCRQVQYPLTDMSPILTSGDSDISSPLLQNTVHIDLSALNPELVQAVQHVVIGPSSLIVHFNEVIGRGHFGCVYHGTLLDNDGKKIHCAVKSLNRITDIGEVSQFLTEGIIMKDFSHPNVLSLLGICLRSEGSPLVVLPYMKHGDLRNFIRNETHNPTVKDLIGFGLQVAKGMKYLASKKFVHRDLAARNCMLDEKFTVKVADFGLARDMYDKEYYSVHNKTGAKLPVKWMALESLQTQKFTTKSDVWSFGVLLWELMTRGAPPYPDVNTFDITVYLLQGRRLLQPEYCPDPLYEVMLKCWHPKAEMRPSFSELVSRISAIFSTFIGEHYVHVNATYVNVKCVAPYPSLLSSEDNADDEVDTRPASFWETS

c-Met degradation (relative total amount of c-Met, ELISA of lysates of MKN45 cells treated 24 hrs with 5 µg/ml antibody) [1]: 88.4%
B1: anti-c-Met/anti-EGFR bispecific antibody ME-03 (bispecific antibody)
heavy: EVQLVESGGGLVQPGGSLRLSCAASGFTFTDYYMSWVRQAPGKGLEWLGFIRNKANGYTTEYSASVKGRFTISRDNSKNTLYLQMNSLRAEDTAVYYCARDNWFAYWGQGTLVTVSSASTKGPSVFPLAPCSRSTSESTAALGCLVKDYFPEPVTVSWNSGALTSGVHTFPAVLQSSGLYSLSSVVTVPSSNFGTQTYTCNVDHKPSNTKVDKTVERKCCVECPPCPAPPVAGPSVFLFPPKPKDTLMISRTPEVTCVVVDVSHEDPEVQFNWYVDGVEVHNAKTKPREEQFNSTFRVVSVLTVVHQDWLNGKEYKCKVSNKGLPAPIEKTISKTKGQPREPQVYTLPPSREEMTKNQVSLTCLVKGFYPSDIAVEWESNGQPENNYKTTPPMLDSDGSFFLYSKLTVDKSRWQQGNVFSCSVMHEALHNHYTQKSLSLSPGKGGGGSGGGGSQVQLVQSGAEVKKPGSSVKVSCKASGFTFTDYKIHWVRQAPGQGLEWMGYINPNSGYSTYASKFQGRVTITADKSTSTAYMELSSLRSEDTAVYYCARLSPGGYYVMDAWGQGTTVTVSSGGGGSGGGGSGGGGSDIQMTQSPSSLSASVGDRVTITCRASQGINNYLNWYQQKPGKAPKLLIYNTNNLQTGVPSRFSGSGSGTEFTLTISSLQPEDEATYYCLQHNSFPTFGQGTKLEIKRT
light: DIQMTQSPSSLSASVGDRVTITCKSSQSLLASGNQNNYLAWYQQKPGKAPKMLIIWASTRVSGVPSRFSGSGSGTDFTLTISSLQPEDFATYYCQQSYSRPYTFGQGTKVEIKRTVAAPSVFIFPPSDEQLKSGTASVVCLLNNFYPREAKVQWKVDNALQSGNSQESVTEQDSKDSTYSLSSTLTLSKADYEKHKVYACEVTHQGLSSPVTKSFNRGEC

Kd [2]: 120 pM
koff [2]: 2.7e-05 s⁻¹
kon [2]: 240000 M⁻¹ s⁻¹
Kd [3]: 230 pM
koff [3]: 0.00016 s⁻¹
kon [3]: 670000 M⁻¹ s⁻¹
B2: anti-c-Met/anti-EGFR bispecific antibody ME-03S (bispecific antibody)
heavy: B1 heavy with G497C, G688C
light: B1 light
notes: Secondary mutant (disulfide-stabilised) anti-EGFR scFv fused to the C-terminus of the Fc of L3-1Y-IgG2

c-Met degradation (relative total amount of c-Met, ELISA of lysates of MKN45 cells treated 24 hrs with 5 µg/ml antibody) [1]: 86.8%
B3: anti-c-Met/anti-EGFR bispecific antibody ME-01 (bispecific antibody)
heavy: B1 heavy with I504F, S515Q, L634R, E671F
light: B1 light

binding result [4]: no binding
binding result [5]: no binding
binding result [6]: no binding
Kd [7]: 1640 pM
Kd [11]: 1430 pM
B4: humanized antibody huAbF46 (H4-heavy / H4-light) (antibody, V domains shown)
VH: EVQLVESGGGLVQPGGSLRLSCAASGFTFTDYYMSWVRQAPGKGLEWLGFIRNKANGYTTEYSASVKGRFTISRDNSKNTLYLQMNSLRAEDTAVYYCARDNWFAYWGQGTLVTVSS
VL: DIQMTQSPSSLSASVGDRVTITCKSSQSLLASGNQNNYLAWHQQKPGKAPKMLIIWASTRVSGVPSRFSGSGSGTDFTLTISSLQPEDFATYYCQQSYSAPLTFGQGTKVEIKR
notes: Purified on Protein A as a whole antibody; also called humanized antibody AbF46
binding result [8]: no binding (tested: 100 nM to 0.39 nM of the peptides)
binding result [9]: no binding (tested: 100 nM to 0.39 nM of the peptides)
binding result [10]: no binding (tested: 100 nM to 0.39 nM of the peptides)
binding result [12]: no binding (tested: 100 nM to 0.39 nM of the peptides)

Reference: patent US20140356366A1 (SAMSUNG ELECTRONICS, published 2014)
